What was measured:
His-IE1 (pET-IE1) [1] = biological target: T1, His-IE1 (pET-IE1) (human cytomegalovirus (Towne strain), UniProt P03169 1-491); assay: pull-down; purified His-Sp100A mixed with Ubc5a in the presence of purified His-IE1; Sp100A- or Ubc5a-directed IP, IB; Buffer A, 4°C; conditions: both partners purified
T1 construct: HCMV IE1 (UL123), wild type, cloned into pET28a; 491 amino acids (Towne); also called purified IE1; source: E. coli BL21, purified (cOmplete His-Tag Purification Resin); not shown: His6, N-terminal, kept
T1 sequence: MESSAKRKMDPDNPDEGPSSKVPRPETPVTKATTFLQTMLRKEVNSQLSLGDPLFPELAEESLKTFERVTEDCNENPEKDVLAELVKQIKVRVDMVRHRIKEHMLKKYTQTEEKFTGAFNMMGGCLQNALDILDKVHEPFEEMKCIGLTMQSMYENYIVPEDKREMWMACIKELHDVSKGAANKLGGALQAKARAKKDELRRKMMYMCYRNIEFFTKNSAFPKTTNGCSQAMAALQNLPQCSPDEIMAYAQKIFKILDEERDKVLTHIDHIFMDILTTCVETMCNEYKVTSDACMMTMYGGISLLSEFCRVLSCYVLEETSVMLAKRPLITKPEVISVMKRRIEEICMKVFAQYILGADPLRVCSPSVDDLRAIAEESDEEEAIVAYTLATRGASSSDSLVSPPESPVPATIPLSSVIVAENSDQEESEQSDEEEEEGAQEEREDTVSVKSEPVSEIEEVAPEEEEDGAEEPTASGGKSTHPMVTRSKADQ

His-IE1 (pET-IE1) [2] = biological target: T1, His-IE1 (pET-IE1); assay: pull-down; in vitro pull-down: 1μg of each purified His-tagged protein (His-IE1 or His-Δ451–475 with His-Hes1) mixed in 300μl Buffer A (50mM NaH2PO4, 300mM NaCl, pH 8.0), antibody overnight at 4°C, protein A+G agarose; conditions: both partners purified

B1: His-Sp100A (pET-Sp100A) (natural protein)
chain: not shown
notes: human Sp100A (isoform A of the nuclear autoantigen Sp-100) cloned into pET28a; also called purified Sp100A; source: E. coli BL21, purified (cOmplete His-Tag Purification Resin); not shown: His6, N-terminal, kept
binding result (His-IE1 (pET-IE1) [1]): binds

B2: His-Hes1 (pET-Hes1) (natural protein, human, UniProt Q14469 1-280, looked up)
chain: MPADIMEKNSSSPVAATPASVNTTPDKPKTASEHRKSSKPIMEKRRRARINESLSQLKTLILDALKKDSSRHSKLEKADILEMTVKHLRNLQRAQMTAALSTDPSVLGKYRAGFSECMNEVTRFLSTCEGVNTEVRTRLLGHLANCMTQINAMTYPGQPHPALQAPPPPPPGPGGPQHAPFAPPPPLVPIPGGAAPPPGGAPCKLGSQAGEAAKVFGGFQVVPAPDGQFAFLIPNGAFAHSGPVIPVYTSNSGTSVGPNAVSPSSGPSLTADSMWRPWRN
notes: human Hes1 cloned into pET28a; also called purified Hes1; source: E. coli BL21, purified (cOmplete His-Tag Purification Resin); not shown: His6, N-terminal, kept
binding result (His-IE1 (pET-IE1) [2]): binds
